Data taken from the supplement of paper PMC7125110.
± gives the standard error. For part of these data: Fewer inactive variants are shown than the library holds.

B1: glmS ribozyme (parent)
chain: AUAAAAGCGCCAGAACUACAGAAAUGUAGUUGACGAGGAGGAGGUUUAUCGAAUUUUCGGCGGAUGCCUCCAAA

Legend:
Details in all cases: with glucosamine-6-phosphate
[1] = variants of: B1; assay: kcat; higher = faster cleavage; RNA array
Outline: (§1)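 Glucosamine-6-phosphate, from 40 μM to 10 mM in HEPES/KCl/Mg(OAc)2 buffer, was flowed over sequenced MiSeq chips carrying barcoded ribozyme variants transcribed in situ by E. coli RNA polymerase. A hybridised Cy3 probe tracked the variants at 37 °C as tiles were imaged over ~14 h. kobs, kcat and KM were obtained by fitting normalised per-tile medians to exponential decays and then applying weighted Michaelis–Menten fits across concentrations.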

[2] = variants of: B1; assay: self-cleavage kobs at 40 uM GlcN6P; higher = faster cleavage; RNA array
Outline: as §1

[3] = variants of: B1; assay: self-cleavage kobs at 10000 uM GlcN6P; higher = faster cleavage; RNA array
Outline: as §1

[4] = variants of: B1; assay: KM; higher = weaker cofactor use; RNA array
Outline: as §1

[5] = variants of: B1; assay: self-cleavage kobs at 160 uM GlcN6P; higher = faster cleavage; RNA array
Outline: as §1

[6] = variants of: B1; assay: self-cleavage kobs at 640 uM GlcN6P; higher = faster cleavage; RNA array
Outline: as §1

[7] = variants of: B1; assay: self-cleavage kobs at 2500 uM GlcN6P; higher = faster cleavage; RNA array
Outline: as §1

## A64C C68A
[1]
  kcat: < 1e-05 s⁻¹
[2]
  self-cleavage kobs at 40 uM GlcN6P: < 1e-05 s⁻¹
[3]
  self-cleavage kobs at 10000 uM GlcN6P: < 1e-05 s⁻¹

## A39G A42U
[1]
  kcat: 0.000818 ± 0.00016 s⁻¹
[4]
  KM: 1510 ± 540 µM
[2]
  self-cleavage kobs at 40 uM GlcN6P: 4.94e-05 ± 1.9e-05 s⁻¹
[5]
  self-cleavage kobs at 160 uM GlcN6P: 7.49e-05 ± 2.2e-05 s⁻¹
[6]
  self-cleavage kobs at 640 uM GlcN6P: 0.00023 ± 5.4e-05 s⁻¹
[7]
  self-cleavage kobs at 2500 uM GlcN6P: 0.00045 ± 0.00014 s⁻¹
[3]
  self-cleavage kobs at 10000 uM GlcN6P: 0.000751 ± 0.00014 s⁻¹

## G40C C70A
[1]
  kcat: 0.000174 ± 1.6e-05 s⁻¹
[4]
  KM: 516 ± 140 µM
[6]
  self-cleavage kobs at 640 uM GlcN6P: 0.000105 ± 1.9e-05 s⁻¹
[7]
  self-cleavage kobs at 2500 uM GlcN6P: 0.00016 ± 3.8e-05 s⁻¹
[3]
  self-cleavage kobs at 10000 uM GlcN6P: 0.000154 ± 2.9e-05 s⁻¹

## U47G A53C
[1]
  kcat: 0.00406 ± 0.001 s⁻¹
[4]
  KM: 2510 ± 860 µM
[2]
  self-cleavage kobs at 40 uM GlcN6P: 0.000103 ± 3.4e-05 s⁻¹
[5]
  self-cleavage kobs at 160 uM GlcN6P: 0.000223 ± 3.9e-05 s⁻¹
[6]
  self-cleavage kobs at 640 uM GlcN6P: 0.000873 ± 0.00013 s⁻¹
[7]
  self-cleavage kobs at 2500 uM GlcN6P: 0.00196 ± 0.00025 s⁻¹
[3]
  self-cleavage kobs at 10000 uM GlcN6P: 0.00439 ± 0.0019 s⁻¹

## C11U C67G
[1]
  kcat: 0.000216 ± 2.7e-05 s⁻¹
[4]
  KM: 633 ± 220 µM
[2]
  self-cleavage kobs at 40 uM GlcN6P: 2.61e-05 ± 1.2e-05 s⁻¹
[5]
  self-cleavage kobs at 160 uM GlcN6P: 4.28e-05 ± 9.2e-06 s⁻¹
[6]
  self-cleavage kobs at 640 uM GlcN6P: 0.000102 ± 1e-05 s⁻¹
[7]
  self-cleavage kobs at 2500 uM GlcN6P: 0.000218 ± 2.2e-05 s⁻¹
[3]
  self-cleavage kobs at 10000 uM GlcN6P: 0.000189 ± 1.7e-05 s⁻¹

## G38A C71U
[1]
  kcat: < 1e-05 s⁻¹

## A53G G59A
[1]
  kcat: 0.000102 ± 1.3e-05 s⁻¹
[4]
  KM: 4360 ± 1300 µM
[7]
  self-cleavage kobs at 2500 uM GlcN6P: 3.91e-05 ± 1.5e-05 s⁻¹
[3]
  self-cleavage kobs at 10000 uM GlcN6P: 7e-05 ± 1.9e-05 s⁻¹

## U47G A64U
[1]
  kcat: 2.76e-05 ± 3.5e-06 s⁻¹

## A42G U57A
[1]
  kcat: 0.000299 ± 4.6e-05 s⁻¹
[2]
  self-cleavage kobs at 40 uM GlcN6P: < 1e-05 s⁻¹
[6]
  self-cleavage kobs at 640 uM GlcN6P: 0.000118 ± 3.7e-05 s⁻¹
[7]
  self-cleavage kobs at 2500 uM GlcN6P: 0.000351 ± 0.00012 s⁻¹
[3]
  self-cleavage kobs at 10000 uM GlcN6P: 0.000266 ± 4.4e-05 s⁻¹

## A14G G37A U54A
[1]
  kcat: 0.00578 ± 0.0027 s⁻¹
[2]
  self-cleavage kobs at 40 uM GlcN6P: 7.89e-05 ± 1.6e-05 s⁻¹
[6]
  self-cleavage kobs at 640 uM GlcN6P: 0.000505 ± 0.00013 s⁻¹
[7]
  self-cleavage kobs at 2500 uM GlcN6P: 0.00178 ± 0.00043 s⁻¹
[3]
  self-cleavage kobs at 10000 uM GlcN6P: 0.00406 ± 0.00062 s⁻¹

## U49G A52U
[1]
  kcat: 1.85e-05 ± 1.5e-06 s⁻¹
[4]
  KM: 2320 ± 910 µM
[5]
  self-cleavage kobs at 160 uM GlcN6P: < 1e-05 s⁻¹

## G29U C58U C68U
[1]
  kcat: 3.99e-05 ± 1.3e-05 s⁻¹
[7]
  self-cleavage kobs at 2500 uM GlcN6P: 5.55e-05 ± 2.2e-05 s⁻¹

## U30A A52U
[1]
  kcat: 0.000132 ± 2.2e-05 s⁻¹
[4]
  KM: 4380 ± 1900 µM
[2]
  self-cleavage kobs at 40 uM GlcN6P: < 1e-05 s⁻¹
[7]
  self-cleavage kobs at 2500 uM GlcN6P: 4.37e-05 ± 1.6e-05 s⁻¹
[3]
  self-cleavage kobs at 10000 uM GlcN6P: 9.26e-05 ± 1.4e-05 s⁻¹

## A6G A42G
[1]
  kcat: 0.000724 ± 0.00013 s⁻¹
[4]
  KM: 2730 ± 960 µM
[5]
  self-cleavage kobs at 160 uM GlcN6P: 2.26e-05 ± 1.1e-05 s⁻¹
[6]
  self-cleavage kobs at 640 uM GlcN6P: 0.000175 ± 2.3e-05 s⁻¹
[7]
  self-cleavage kobs at 2500 uM GlcN6P: 0.000329 ± 4.6e-05 s⁻¹
[3]
  self-cleavage kobs at 10000 uM GlcN6P: 0.000569 ± 5.1e-05 s⁻¹

## G40U U69C
[1]
  kcat: 8.37e-05 ± 1.1e-05 s⁻¹
[6]
  self-cleavage kobs at 640 uM GlcN6P: 6.56e-05 ± 2e-05 s⁻¹
[7]
  self-cleavage kobs at 2500 uM GlcN6P: 9.26e-05 ± 1.9e-05 s⁻¹
[3]
  self-cleavage kobs at 10000 uM GlcN6P: 7.39e-05 ± 1.2e-05 s⁻¹

## G13C U31C
[1]
  kcat: 0.0015 ± 0.00033 s⁻¹
[4]
  KM: 3460 ± 1200 µM
[2]
  self-cleavage kobs at 40 uM GlcN6P: 3.14e-05 ± 1e-05 s⁻¹
[5]
  self-cleavage kobs at 160 uM GlcN6P: 0.000104 ± 4.3e-05 s⁻¹
[6]
  self-cleavage kobs at 640 uM GlcN6P: 0.000211 ± 2.9e-05 s⁻¹
[7]
  self-cleavage kobs at 2500 uM GlcN6P: 0.000748 ± 0.00013 s⁻¹
[3]
  self-cleavage kobs at 10000 uM GlcN6P: 0.00109 ± 0.00014 s⁻¹
